# Laboratory results: US20090209457A1, “TREATMENT OF ANTI-ERYTHROPOIETIN ANTIBODY-MEDIATED DISORDERS WITH SYNTHETIC PEPTIDE-BASED EPO RECEPTOR AGONISTS” (Affymax, Inc., priority 2008, published 2009)
# Where two headings read alike, the source gives them in different places. Bridge positions count the residues as written; N and C are the ends. Square brackets hold non-standard residues; d marks the D form. Ends that are not written are not given here. 1Nal = N[C@@H](Cc1cccc2ccccc12)C(=O)O; Sar = CNCC(=O)O
# T1: chimeric receptor comprising the extra-cellular portion of the human EPO receptor to the intra-cellular … (human, UniProt P19235 25-250; Q99062 651-836, limits assumed)
# T1 sequence (looked up): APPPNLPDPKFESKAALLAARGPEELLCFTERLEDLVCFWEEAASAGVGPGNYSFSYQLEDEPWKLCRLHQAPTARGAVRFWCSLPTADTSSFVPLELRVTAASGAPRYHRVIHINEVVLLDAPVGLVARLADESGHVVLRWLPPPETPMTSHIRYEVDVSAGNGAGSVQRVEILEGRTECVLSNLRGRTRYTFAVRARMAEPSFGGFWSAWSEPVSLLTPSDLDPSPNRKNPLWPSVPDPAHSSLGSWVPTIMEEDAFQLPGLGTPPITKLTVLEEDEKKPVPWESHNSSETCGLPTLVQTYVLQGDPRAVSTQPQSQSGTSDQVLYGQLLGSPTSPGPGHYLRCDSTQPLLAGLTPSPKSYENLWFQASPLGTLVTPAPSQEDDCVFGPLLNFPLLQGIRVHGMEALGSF
# T2: human EPO-R on cells (BaF3/Gal4/Elk/EPOR cells; human bone marrow derived CD34+ cells) (human, UniProt P19235 25-508)
# T2 sequence (looked up): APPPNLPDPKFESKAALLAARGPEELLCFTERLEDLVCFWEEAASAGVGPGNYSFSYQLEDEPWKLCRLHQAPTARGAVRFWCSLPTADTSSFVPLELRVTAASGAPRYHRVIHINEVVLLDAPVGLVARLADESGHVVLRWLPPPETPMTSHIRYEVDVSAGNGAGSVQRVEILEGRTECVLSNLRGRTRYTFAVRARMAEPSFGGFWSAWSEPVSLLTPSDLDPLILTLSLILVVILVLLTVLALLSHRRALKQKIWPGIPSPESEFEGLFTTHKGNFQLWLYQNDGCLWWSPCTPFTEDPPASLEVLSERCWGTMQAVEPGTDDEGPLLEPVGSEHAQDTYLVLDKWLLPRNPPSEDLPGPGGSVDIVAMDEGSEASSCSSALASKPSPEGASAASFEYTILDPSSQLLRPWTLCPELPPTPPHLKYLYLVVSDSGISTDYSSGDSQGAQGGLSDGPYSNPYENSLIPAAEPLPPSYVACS
# T3: Recombinant Human EPO R/Fc Chimera (R&D Systems, catalog number 963-ER) (human, UniProt P19235 25-250)
# T3 construct: extracellular domain; Bought reagent; also called recombinant EPOr extracellular domain fused to the Fc portion of human IgG1; recombinant erythropoietin receptor; not shown: Fc portion of human IgG1
# T3 sequence (looked up): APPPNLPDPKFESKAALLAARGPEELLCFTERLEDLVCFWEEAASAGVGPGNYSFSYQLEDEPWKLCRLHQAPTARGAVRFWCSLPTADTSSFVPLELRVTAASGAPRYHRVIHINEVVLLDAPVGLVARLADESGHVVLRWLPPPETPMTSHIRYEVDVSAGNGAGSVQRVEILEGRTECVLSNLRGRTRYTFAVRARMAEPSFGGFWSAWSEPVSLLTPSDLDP
# T4: recombinant EPO-R produced in Chinese Hamster Ovary cells as a fusion protein to a portion of the human … (human, UniProt P19235 25-250)
# T4 construct: In the assay it was held on protein A acceptor beads through antibody ab179
# T4 sequence (looked up): T3 sequence (looked up)
# B1: Peptide III (SEQ ID NO: 3) (peptide)
# peptide: Ac-GGLYACHMGPIT[1Nal]VCQPLR[Sar]
# modifications: disulfide 6-15 (inferred); also: C-termini joined to α- and ε-amines of a Lys linker carrying spacer and PEG
# B2: Peptide I (SEQ ID NO: 2) (peptide)
# peptide: Ac-GGLYACHMGPIT[1Nal]VCQPLR[Sar]K
# modifications: disulfide 6-15 (inferred); also: K21 ε-amine joined to branched tertiary amide linker bearing PEG
# B3: Peptide II (SEQ ID NO: 3) (peptide)
# peptide: Ac-GGLYACHMGPIT[1Nal]VCQPLR[Sar]
# modifications: disulfide 6-15 (inferred); also: C-termini joined to α- and ε-amines of a Lys linker carrying spacer and PEG
# How the values were obtained:
# [1] = system: human, bone marrow derived CD34+ cells; assay: C/BFU-e assay (erythroid colonies); type: cell-based; conditions: 14 days, 90% of maximum colonies relative to EPO control
# Experimental: EPO-R signaling stimulates the differentiation of bone marrow stem cells into proliferating red blood cell precursors. This assay measures the ability of test peptides to stimulate the proliferation and differentiation of red blood cell precursors from primary human bone marrow pluripotent stem cells.
# For this assay, serial dilutions of test peptide are made in IMDM medium (Gibco) supplemented with 10% FBS (Hyclone). These serial dilutions, or positive control EPO peptide, are then added to methylcellulose to give a final volume of 1.5 mL. The methylcellulose and peptide mixture is then vortexed thoroughly. Aliquots (100,000 cells/mL) of human, bone marrow derived CD34+ cells (Poietics/Cambrex) are thawed. The thawed cells are gently added to 0.1 mL of 1 mg/ml DNAse (Stem Cells) in a 50 mL tube. Next, 40-50 mL IMDM medium is added gently to cells: the medium is added drop by drop along the side of the 50 mL tube for the first 10 mL, and then the remaining volume of medium is slowly dispensed along the side of the tube. The cells are then spun at 900 rpm for 20 min, and the media removed carefully by gentle aspiration. The cells are resuspended in 1 ml of IMDM medium and the cell density per mL is counted on hemacytometer slide (10 μL aliquot of cell suspension on slide, and cell density is the average count×10,000 cells/ml). The cells are then diluted in IMDM medium to a cell density of 15,000 cells/mL. A 100 μL of diluted cells is then added to each 1.5 mL methyl cellulose plus peptide sample (final cell concentration in assay media is 1000 cells/mL), and the mixture is vortexed. Allow the bubbles in the mixture to disappear, and then aspirate 1 mL using blunt-end needle. Add 0.25 mL aspirated mixture from each sample into each of 4 wells of a 24-well plate (Falcon brand). Incubate the plated mixtures at 37° C. under 5% CO2 in a humid incubator for 14 days. Score for the presence of erythroid colonies using a phase microscope (5×-10× objective, final magnification of 100×). The concentration of test peptide at which the number of formed colonies is 90% of maximum, relative to that observed with the EPO positive control, is recorded as the EC90 [See Table 2: C/BFU-e EC90].
# For this assay, serial dilutions of test peptide are made in IMDM medium (Gibco) supplemented with 10% FBS (Hyclone). These serial dilutions, or positive control EPO peptide, are then added to methylcellulose to give a final volume of 1.5mL. The methylcellulose and peptide mixture is then vortexed thoroughly. […] The cells are resuspended in 1 ml of IMDM medium and the cell density per mL is counted on hemacytometer slide (10 μL aliquot of cell suspension on slide, and cell density is the average count×10,000 cells/ml). […]
# [2] = target: T1, chimeric receptor comprising the …; assay: cell-based or functional assay
# [3] = target: T2, human EPO-R on cells …; assay: cell-based or functional assay
# [4] = target: T3, Recombinant Human EPO R/Fc Chimera (R&D …); assay: radioligand competition: displacement of 125I-EPO from recombinant human EPO R/Fc, Protein-G Sepharose pull-down
# [5] = target: T1, chimeric receptor comprising the …; assay: cell-based or functional assay; remark: listed apart in the source
# [6] = target: T2, human EPO-R on cells …; assay: cell-based or functional assay; remark: listed apart in the source
# [7] = target: T4, recombinant EPO-R produced in Chinese …; assay: competitive binding; the column head says only 'IC50 (pM)', the text ties Table 2 to the AQ bead proximity assay with tracer SEQ ID NO: 4 as competitor
molecule,measurement,setting,value
"PEGylated peptide dimer of (AcG)GLYACHMGPIT(1-nal)VCQPLR(MeG) (SEQ ID NO: 3), EPO-R agonist [Peptide III] (Ac-GGLYACHMGPIT[1Nal]VCQPLR[Sar]; disulfide 6-15 (inferred); also: homodimer, C-termini joined to a lysine linker, PEGylated)",EC90,[1],2.7 nM
"PEGylated peptide dimer of (AcG)GLYACHMGPIT(1-nal)VCQPLR(MeG) (SEQ ID NO: 3), EPO-R agonist [Peptide II] (Ac-GGLYACHMGPIT[1Nal]VCQPLR[Sar]; disulfide 6-15 (inferred); also: homodimer, C-termini joined to a lysine linker, PEGylated)",EC90,[1],2.2 nM
"Peptide IV: PEGylated peptide dimer of (AcG)GLYACHMGPIT(1-nal)VCQPLRK (SEQ ID NO: 1), EPO-R agonist (Ac-GGLYACHMGPIT[1Nal]VCQPLRK; disulfide 6-15 (inferred); also: PEGylated peptide dimer)",EC90,[1],6.2 nM
B1,Reporter EC50 (pM),[2],150 pM
same,Proliferation EC50,[3],72 nM
B2,IC50,[4],0.111 nM
same,Reporter EC50 (pM),[5],195 pM
same,Proliferation EC50 (pM),[6],165 pM
B3,IC50,[7],0.11 nM
